Laboratory results from patent US20110091994A1, “Methods for Screening Compounds for Treating and/or Preventing an Hepatitis C Virus Infection” (priority 2008, published 2011).

B1: NEFL (protein, UniProt P07196 2-543, looked up)
Neurofilament light …: SSFSYEPYYSTSYKRRYVETPRVHISSVRSGYSTARSAYSSYSAPVSSSLSVRRSYSSSSGSLMPSLENLDLSQVAAISNDLKSIRTQEKAQLQDLNDRFASFIERVHELEQQNKVLEAELLVLRQKHSEPSRFRALYEQEIRDLRLAAEDATNEKQALQGEREGLEETLRNLQARYEEEVLSREDAEGRLMEARKGADEAALARAELEKRIDSLMDEISFLKKVHEEEIAELQAQIQYAQISVEMDVTKPDLSAALKDIRAQYEKLAAKNMQNAEEWFKSRFTVLTESAAKNTDAVRAAKDEVSESRRLLKAKTLEIEACRGMNEALEKQLQELEDKQNADISAMQDTINKLENELRTTKSEMARYLKEYQDLLNVKMALDIEIAAYRKLLEGEETRLSFTSVGSITSGYSQSSQVFGRSAYGGLQTSSYLMSTRSFPSYYTSHVQEEQIEVEETIEAAKAEEAKDEPPSEGEAEEEEKDKEEAEEEEAAEEEEAAKEESEEAKEEEEGGEGEEGEETKEAEEEEKKVEGAGEEQAAKKKD
B2: NEFM (protein, UniProt P07197 2-916, looked up)
Neurofilament medium …: SYTLDSLGNPSAYRRVTETRSSFSRVSGSPSSGFRSQSWSRGSPSTVSSSYKRSMLAPRLAYSSAMLSSAESSLDFSQSSSLLNGGSGPGGDYKLSRSNEKEQLQGLNDRFAGYIEKVHYLEQQNKEIEAEIQALRQKQASHAQLGDAYDQEIRELRATLEMVNHEKAQVQLDSDHLEEDIHRLKERFEEEARLRDDTEAAIRALRKDIEEASLVKVELDKKVQSLQDEVAFLRSNHEEEVADLLAQIQASHITVERKDYLKTDISTALKEIRSQLESHSDQNMHQAEEWFKCRYAKLTEAAEQNKEAIRSAKEEIAEYRRQLQSKSIELESVRGTKESLERQLSDIEERHNHDLSSYQDTIQQLENELRGTKWEMARHLREYQDLLNVKMALDIEIAAYRKLLEGEETRFSTFAGSITGPLYTHRPPITISSKIQKPKVEAPKLKVQHKFVEEIIEETKVEDEKSEMEEALTAITEELAVSMKEEKKEAAEEKEEEPEAEEEEVAAKKSPVKATAPEVKEEEGEKEEEEGQEEEEEEDEGAKSDQAEEGGSEKEGSSEKEEGEQEEGETEAEAEGEEAEAKEEKKVEEKSEEVATKEELVADAKVEKPEKAKSPVPKSPVEEKGKSPVPKSPVEEKGKSPVPKSPVEEKGKSPVPKSPVEEKGKSPVSKSPVEEKAKSPVPKSPVEEAKSKAEVGKGEQKEEEEKEVKEAPKEEKVEKKEEKPKDVPEKKKAESPVKEEAVAEVVTITKSVKVHLEKETKEEGKPLQQEKEKEKAGGEGGSEEEGSDKGAKGSRKEDIAVNGEVEGKEEVEQETKEKGSGREEEKGVVTNGLDLSPADEKKGGDKSEEKVVVTKTVEKITSEGGDGATKYITKSVTVTQKVEEHEETFEEKLVSTKKVEKVTSHAIVKEVTQSD
B3: NELL1 (protein, UniProt Q92832 22-810, looked up)
Protein kinase C-binding …: FGMDPDLQMDIVTELDLVNTTLGVAQVSGMHNASKAFLFQDIEREIHAAPHVSEKLIQLFRNKSEFTILATVQQKPSTSGVILSIRELEHSYFELESSGLRDEIRYHYIHNGKPRTEALPYRMADGQWHKVALSVSASHLLLHVDCNRIYERVIDPPDTNLPPGINLWLGQRNQKHGLFKGIIQDGKIIFMPNGYITQCPNLNHTCPTCSDFLSLVQGIMDLQELLAKMTAKLNYAETRLSQLENCHCEKTCQVSGLLYRDQDSWVDGDHCRNCTCKSGAVECRRMSCPPLNCSPDSLPVHIAGQCCKVCRPKCIYGGKVLAEGQRILTKSCRECRGGVLVKITEMCPPLNCSEKDHILPENQCCRVCRGHNFCAEGPKCGENSECKNWNTKATCECKSGYISVQGDSAYCEDIDECAAKMHYCHANTVCVNLPGLYRCDCVPGYIRVDDFSCTEHDECGSGQHNCDENAICTNTVQGHSCTCKPGYVGNGTICRAFCEEGCRYGGTCVAPNKCVCPSGFTGSHCEKDIDECSEGIIECHNHSRCVNLPGWYHCECRSGFHDDGTYSLSGESCIDIDECALRTHTCWNDSACINLAGGFDCLCPSGPSCSGDCPHEGGLKHNGQVWTLKEDRCSVCSCKDGKIFCRRTACDCQNPSADLFCCPECDTRVTSQCLDQNGHKLYRSGDNWTHSCQQCRCLEGEVDCWPLTCPNLSCEYTAILEGECCPRCVSDPCLADNITYDIRKTCLDSYGVSRLSGSVWTMAGSPCTTCKCKNGRVCCSVDFECLQNN
B4: NID1 (protein, UniProt P14543 29-1247, looked up)
Nidogen-1: LSRQELFPFGPGQGDLELEDGDDFVSPALELSGALRFYDRSDIDAVYVTTNGIIATSEPPAKESHPGLFPPTFGAVAPFLADLDTTDGLGKVYYREDLSPSITQRAAECVHRGFPEISFQPSSAVVVTWESVAPYQGPSRDPDQKGKRNTFQAVLASSDSSSYAIFLYPEDGLQFHTTFSKKENNQVPAVVAFSQGSVGFLWKSNGAYNIFANDRESVENLAKSSNSGQQGVWVFEIGSPATTNGVVPADVILGTEDGAEYDDEDEDYDLATTRLGLEDVGTTPFSYKALRRGGADTYSVPSVLSPRRAATERPLGPPTERTRSFQLAVETFHQQHPQVIDVDEVEETGVVFSYNTDSRQTCANNRHQCSVHAECRDYATGFCCSCVAGYTGNGRQCVAEGSPQRVNGKVKGRIFVGSSQVPIVFENTDLHSYVVMNHGRSYTAISTIPETVGYSLLPLAPVGGIIGWMFAVEQDGFKNGFSITGGEFTRQAEVTFVGHPGNLVIKQRFSGIDEHGHLTIDTELEGRVPQIPFGSSVHIEPYTELYHYSTSVITSSSTREYTVTEPERDGASPSRIYTYQWRQTITFQECVHDDSRPALPSTQQLSVDSVFVLYNQEEKILRYALSNSIGPVREGSPDALQNPCYIGTHGCDTNAACRPGPRTQFTCECSIGFRGDGRTCYDIDECSEQPSVCGSHTICNNHPGTFRCECVEGYQFSDEGTCVAVVDQRPINYCETGLHNCDIPQRAQCIYTGGSSYTCSCLPGFSGDGQACQDVDECQPSRCHPDAFCYNTPGSFTCQCKPGYQGDGFRCVPGEVEKTRCQHEREHILGAAGATDPQRPIPPGLFVPECDAHGHYAPTQCHGSTGYCWCVDRDGREVEGTRTRPGMTPPCLSTVAPPIHQGPAVPTAVIPLPPGTHLLFAQTGKIERLPLEGNTMRKTEAKAFLHVPAKVIIGLAFDCVDKMVYWTDITEPSIGRASLHGGEPTTIIRQDLGSPEGIAVDHLGRNIFWTDSNLDRIEVAKLDGTQRRVLFETDLVNPRGIVTDSVRGNLYWTDWNRDNPKIETSYMDGTNRRILVQDDLGLPNGLTFDAFSSQLCWVDAGTNRAECLNPSQPSRRKALEGLQYPFAVTSYGKNLYFTDWKMNSVVALDLAISKETDAFQPHKQTRLYGITTALSQCPQGHNYCSVNNGGCTHLCLATPGSRTCRCPDNTLGVDCIEQK
B5: NID2 (protein, UniProt Q14112 31-1375, looked up)
Nidogen-2: LHPDELFPHGESWGDQLLQEGDDESSAVVKLANPLHFYEARFSNLYVGTNGIISTQDFPRETQYVDYDFPTDFPAIAPFLADIDTSHGRGRVLYREDTSPAVLGLAARYVRAGFPRSARFTPTHAFLATWEQVGAYEEVKRGALPSGELNTFQAVLASDGSDSYALFLYPANGLQFLGTRPKESYNVQLQLPARVGFCRGEADDLKSEGPYFSLTSTEQSVKNLYQLSNLGIPGVWAFHIGSTSPLDNVRPAAVGDLSAAHSSVPLGRSFSHATALESDYNEDNLDYYDVNEEEAEYLPGEPEEALNGHSSIDVSFQSKVDTKPLEESSTLDPHTKEGTSLGEVGGPDLKGQVEPWDERETRSPAPPEVDRDSLAPSWETPPPYPENGSIQPYPDGGPVPSEMDVPPAHPEEEIVLRSYPASGHTTPLSRGTYEVGLEDNIGSNTEVFTYNAANKETCEHNHRQCSRHAFCTDYATGFCCHCQSKFYGNGKHCLPEGAPHRVNGKVSGHLHVGHTPVHFTDVDLHAYIVGNDGRAYTAISHIPQPAAQALLPLTPIGGLFGWLFALEKPGSENGFSLAGAAFTHDMEVTFYPGEETVRITQTAEGLDPENYLSIKTNIQGQVPYVSANFTAHISPYKELYHYSDSTVTSTSSRDYSLTFGAINQTWSYRIHQNITYQVCRHAPRHPSFPTTQQLNVDRVFALYNDEERVLRFAVTNQIGPVKEDSDPTPGNPCYDGSHMCDTTARCHPGTGVDYTCECASGYQGDGRNCVDENECATGFHRCGPNSVCINLPGSYRCECRSGYEFADDRHTCILITPPANPCEDGSHTCAPAGQARCVHHGGSTFSCACLPGYAGDGHQCTDVDECSENRCHPAATCYNTPGSFSCRCQPGYYGDGFQCIPDSTSSLTPCEQQQRHAQAQYAYPGARFHIPQCDEQGNFLPLQCHGSTGFCWCVDPDGHEVPGTQTPPGSTPPHCGPSPEPTQRPPTICERWRENLLEHYGGTPRDDQYVPQCDDLGHFIPLQCHGKSDFCWCVDKDGREVQGTRSQPGTTPACIPTVAPPMVRPTPRPDVTPPSVGTFLLYTQGQQIGYLPLNGTRLQKDAAKTLLSLHGSIIVGIDYDCRERMVYWTDVAGRTISRAGLELGAEPETIVNSGLISPEGLAIDHIRRTMYWTDSVLDKIESALLDGSERKVLFYTDLVNPRAIAVDPIRGNLYWTDWNREAPKIETSSLDGENRRILINTDIGLPNGLTFDPFSKLLCWADAGTKKLECTLPDGTGRRVIQNNLKYPFSIVSYADHFYHTDWRRDGVVSVNKHSGQFTDEYLPEQRSHLYGITAVYPYCPTGRK
B6: N-PAC (protein, UniProt Q49A26 1-553, looked up)
Cytokine-like nuclear factor …: MAAVSLRLGDLVWGKLGRYPPWPGKIVNPPKDLKKPRGKKCFFVKFFGTEDHAWIKVEQLKPYHAHKEEMIKINKGKRFQQAVDAVEEFLRRAKGKDQTSSHNSSDDKNRRNSSEERSRPNSGDEKRKLSLSEGKVKKNMGEGKKRVSSGSSERGSKSPLKRAQEQSPRKRGRPPKDEKDLTIPESSTVKGMMAGPMAAFKWQPTASEPVKDADPHFHHFLLSQTEKPAVCYQAITKKLKICEEETGSTSIQAADSTAVNGSITPTDKKIGFLGLGLMGSGIVSNLLKMGHTVTVWNRTAEKCDLFIQEGARLGRTPAEVVSTCDITFACVSDPKAAKDLVLGPSGVLQGIRPGKCYVDMSTVDADTVTELAQVIVSRGGRFLEAPVSGNQQLSNDGMLVILAAGDRGLYEDCSSCFQAMGKTSFFLGEVGNAAKMMLIVNMVQGSFMATIAEGLTLAQVTGQSQQTLLDILNQGQLASIFLDQKCQNILQGNFKPDFYLKYIQKDLRLAIALGDAVNHPTPMAAAANEVYKRAKALDQSDNDMSAVYRAYIH

Key:
[1] = target: T1, HCV ORFs (Gal4-DB fusions) (Hepatitis C virus genotype 1b, UniProt Q9WMX2); type: binding, HCV genotype 1b, isolate con1; conditions: HCV protein NS3 as bait; human protein as prey
T1 construct: expressed in transfected cells; host or cells: Saccharomyces cerevisiae MAV203 (IMAP1) / AH109 (IMAP2)

[2] = tested on: HCV ORFs (Gal4-DB fusions); type: binding, HCV genotype 1b, isolate con1; conditions: human protein listed by gene symbol; the value names the HCV protein it interacts with
[3] = target: T2, HCV proteins (Hepatitis C virus genotype 1b, UniProt Q9WMX2); test: Validation by Y2H pairwise matrices; type: binding; conditions: validation of interaction with HCV protein NS3;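 further: yeast two-hybrid pairwise tests of interactions first found in Y2H screens of HCV bait proteins against human cDNA libraries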
T2 construct: expressed in transfected cells
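Wherever IMAP Y2H IMAP1 (number of IST) is given: yeast two-hybrid screens using HCV genotype 1b proteins fused to Gal4-DB as baits against prey cDNA libraries from human spleen and foetal brain, IMAP1 via transformation and IMAP2 via mating.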
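Wherever IMAP Y2H IMAP2 (number of IST) is given: yeast two-hybrid screens using HCV genotype 1b proteins fused to Gal4-DB as baits against prey cDNA libraries from human spleen and foetal brain, IMAP1 via transformation and IMAP2 via mating.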
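Wherever Interaction with viral protein is given: yeast two-hybrid screens using HCV genotype 1b proteins fused to Gal4-DB as baits against prey cDNA libraries from human spleen and foetal brain, IMAP1 via transformation and IMAP2 via mating.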

T1 sequence (Q9WMX2 1027-1657): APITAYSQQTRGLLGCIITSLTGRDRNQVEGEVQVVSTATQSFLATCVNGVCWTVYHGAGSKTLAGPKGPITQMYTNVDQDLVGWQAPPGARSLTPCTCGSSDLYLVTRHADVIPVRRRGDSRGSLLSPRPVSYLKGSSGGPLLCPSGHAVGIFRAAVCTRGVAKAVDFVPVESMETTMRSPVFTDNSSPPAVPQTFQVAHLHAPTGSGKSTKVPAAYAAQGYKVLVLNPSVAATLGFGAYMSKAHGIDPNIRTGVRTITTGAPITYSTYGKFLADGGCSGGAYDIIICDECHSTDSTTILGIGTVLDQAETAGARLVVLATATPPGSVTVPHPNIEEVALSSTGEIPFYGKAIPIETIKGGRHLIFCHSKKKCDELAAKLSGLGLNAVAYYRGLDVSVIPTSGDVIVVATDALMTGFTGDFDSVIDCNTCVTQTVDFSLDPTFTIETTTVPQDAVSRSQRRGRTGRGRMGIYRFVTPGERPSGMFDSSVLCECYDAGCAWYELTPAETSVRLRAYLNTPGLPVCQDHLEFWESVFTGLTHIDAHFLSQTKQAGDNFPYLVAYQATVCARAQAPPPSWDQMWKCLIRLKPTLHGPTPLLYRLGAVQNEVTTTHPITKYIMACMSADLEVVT
T2 sequence (Q9WMX2 1027-1657): as above

| Molecule | IMAP Y2H IMAP1 (number of IST) [1] | Interaction with viral protein [2] | Y2H matrices [3] | IMAP Y2H IMAP2 (number of IST) [1] |
| --- | --- | --- | --- | --- |
| B1 | 1 | NS3 | + |  |
| B2 | 1 | NS3 | + |  |
| B3 | 3 | NS3 | + |  |
| B4 | 2 | NS3 | + |  |
| B5 | 2 | NS3 | + |  |
| B6 | 2 | NS3 | + | 11 |
